From the supplement of paper PMC9170038

Test system: MS2 coat protein
Test: apparent KD of MS2 coat protein; higher = weaker reporter binding
Details: Eterna round: R107
Procedure, shortened: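 Apparent KD is reported per design as the median of normalised binding-curve fits across its clusters. The RNA switches were made by on-chip transcription from Illumina sequencing clusters. SNAP-549-labelled MS2 coat protein was then added in twofold steps (0.7 or 1.5 nM to 3 µM; 0.8–1.5 h to 10–20 min per step) in 100 mM Tris-HCl pH 7.5, 80 mM KCl, 4 mM MgCl2, without or with constant ligand.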

[1] = input ligand: theophylline 20 uM
[2] = input ligand: tryptophan 2.4 mM
[3] = input ligand: theophylline 2 mM

Sequence	apparent KD of MS2 coat protein (input ligand: arginine 13.2 mM)	apparent KD of MS2 coat protein [1]	apparent KD of MS2 coat protein [2]	apparent KD of MS2 coat protein (input ligand: none)	apparent KD of MS2 coat protein [3]
AUCGUACCUGGUGAUACCAGCAAUUGCUCGUGACAUGAGGAUCACCCAUGUGACCAGUGAUGCCCUUGGCAGCAUGGUCGGUGCA [Same State - Theophylline B (Freestyle 23)]	36.8 nM	65.3 nM	61.2 nM		
ACAUGAGGAUCACCCAUGUGGCGUCUUGAUACCAGACCCGAAGUAGUCCCUUGGCAGCAACUACGUGAGGGUCGCCCAUGUGUAG [k'kmullin]	23.5 nM	40.8 nM	25.5 nM	30.4 nM	40.9 nM
GGACUAACCUGAAGGAGCGACACGCACAAAGUGCAAAUUCCUCCACACGAGGAUCACCCGUGUCAGGUAGGUCGCAGGUUAGUCG [ArgBX 28]	24.3 nM	30.8 nM	29.1 nM	23 nM	23.7 nM
GUAUACAUGAGGAUCACCCAUGUACCAGAAGGAGCGCUGGAAACAGCAGGUAGGUCGCUGGUAGGUCCUCUAUCUAGACGUUCGG [EAA NP+V+V2 #4]	49.9 nM	191 nM	139 nM	168 nM	201 nM
CCAUAAGUACCGGUCCUCAGAUCCUCAUGACGAGGACCGGUACGGCCGCCACUCGAAACAUGAGGAUCACCCAUGUAAUAAUACC [Brourdmod18]	26.4 nM	101 nM			97.6 nM
CGUCGAAACUGAAGGAGCGAGAUGACAACAUUGGGUCUAACAUGAGGAUCACCCAUGUAAUCUCAGGUAGGUCGCGGUGACAACA [Exclusion Arginine B GF 17]	40.1 nM	48.5 nM	51.7 nM	38.9 nM	59.6 nM
CGUCAACAUGAGGAUCACCCAUGUUUCGAUACCAGUGACCCUCUCCACCCUUGGCAGCGAGCGCCCGCGCCUGAUAAAUCUUCUA [theeternabot_sameState_MS2_Theo_A_18]	13.5 nM	16.4 nM	14.1 nM		
AUCCACAGCCGAAGGAGCGCUAUAGGAUGACAUGAGGAUCACCCAUGUGUGUGAUGUGGAUAGCAGGUAGGUCGCGGAGUGGAUU [Exclusion - Arginine B (Freestyle 10)]	73 nM	92.5 nM	26.3 nM	29.5 nM	29.1 nM
UUAAGAGGAUAUCAAAUUUGAUUUUGUGAUACCAGAAUAAUUUUAUUCCCUUGGCAGCAUGACAUGAGGAUCACCCAUGUGUCUU [SSTheo A #1]	37.3 nM	44.3 nM	30.9 nM		
ACGACGCAUAGUGAUACCAGUAGAACAUGAGGAUCACCCAUGUCUGUGACGCACAAACUCUGCCCUUGGCAGCACUAUGCGUCAG [SSTheo B #7]	12 nM	15.9 nM	12.2 nM		
ACCUACACGGAGACGUGUAGGAGUAAUGAUACCAGCAUGGAGACAUGCCCUUGGCAGCGUUACAUGAGGAUCACCCAUGUAGGUU [ETHA #4]	43.3 nM	59 nM	43.1 nM	43.6 nM	78.8 nM
GGCUACAUGAGGAUCACCCAUGUUUCUCGUCGAGGACCGGUACGGCCGCCACUCGUUGUUGGGACUCAGUAUCAGUCGUUAGUUU [theeternabot_sameState_MS2_Trp_A_36]	23.8 nM	34.3 nM			40.2 nM
ACUAGUUGUGCAGAUACCAGACAUGAGGAUCACCCAUGUUUGGGAUCUUCGGAUCUUCCUGUCCCUUGGCAGCUGUACAUCUAGA [Omei Theo B Exc v3]	62.6 nM	178 nM	125 nM		
UGGAGUAUCAGACAUGAGGAUCACCCAUGUCGAGGACCGGUACGGCCGCCACUCGGCAGUUUGCGUCCUCAGGUACUCCGGGUAA [Edlatearis]	16.8 nM	26.9 nM	27.7 nM	11.2 nM	15.3 nM
UUAUGCAGGUCGGCCGCCACUACACACAUGAGGAUCACCCAUGUAGUUACUGGGUGAAGUGGCAGUAGGACCGGGACCCGCACAU [Brourdmod21]	151 nM	388 nM	383 nM	367 nM	612 nM
ACAUUUAACUGAAGGAGCGUGAUUAACAUGAGGAUCACCCAUGUAACUUAGAUGCUUAUAUCACAGGUAGGUCGCAGACUAAUGA [JR_ExcArginiB_Sub011]	13.9 nM	18.3 nM	15.5 nM	13.6 nM	14.9 nM
AUGGUCGACGAUCUGCGAAAAGCAGAUCGACGAGGACCGGUACGGCCGCCACUCGUGUUCAUUAAACAUGAGGAUCACCCAUGUA [#15Tryptophan A Same State]	41 nM	68.7 nM			70.2 nM
ACGACGCAUAGUGAUACCAGUAGAACAUGAGGAUCACCCAUGUCUGUGACGCACAAAUUCUGCCCUUGGCAGCACUAUGCGUCAG [SSTheo B #6]	12.6 nM	18.1 nM	12.1 nM		
CAUAUUGUAACUGAUACCAGUGUACUGACAUGAGGAUCACCCAUGUUGGGUUUUGUUGUACACCCUUGGCAGCAGAAUCAAUAUG [AstrosExyTheB#4]	45.6 nM	74.2 nM	60.4 nM		
GGGUACAUCGCGGCCGCCACUGGUGUAAAUACAUGAGGAUCACCCAUGUCGAUGGAGACAUCGGGUAGGACCGGGUGAUGUACCG	19.8 nM	37.3 nM	24.3 nM	21.9 nM	30.2 nM

Sequence	apparent KD of MS2 coat protein (input ligand: arginine 13.2 mM)	apparent KD of MS2 coat protein [1]	apparent KD of MS2 coat protein [2]	apparent KD of MS2 coat protein (input ligand: none)	apparent KD of MS2 coat protein [3]
GGGCACAUGAGGAUCACCCAUGUCCAACGGCGAGGACCGGUACGGCCGCCACUCGGUAUAAGCUUCGAAAAGGAGGAUCCUGCAG [theeternabot_sameState_MS2_Trp_A_35]	20.4 nM	56.3 nM			47.7 nM
CCGGGCUGUGGAGACAUAGCCCGGACUGAAGGAGCGGGAAUAAACCCAGGUAGGUCGCAGAGAUCCACAUGAGGAUCACCCAUGU [!0.S]	34.4 nM	40.9 nM	36.7 nM	34 nM	46.8 nM
UAGACGGCCGGAAGGAGCGGUACAUGAGGAUCACCCAUGUAUCUCUGGGCAUCCGUAGAGUGCCAGGUAGGUCGCCGGUUGCGGG [XArg-B22]	12.3 nM	13.8 nM	11.4 nM	11 nM	11.5 nM
CGAGUUCGCUGAUGGGCUACGUCAGGUGAUACCAGCCACUCCCGCGGCCCUUGGCAGCACAUGAGGAUCACCCAUGUAGAGCUUG [Esinve]	12.2 nM	28.6 nM	15 nM		
AUAAAUAAUAAAUAAAAUAAAGUGGGUGAACGAGGACCGGUACGGCCGCCACUCGGACAUGAGGAUCACCCAUGUCCAUGUGAAA [AstrosExyTry#1]	13.1 nM	22.4 nM			19.2 nM
UGGGAAGGAGGAAGGAGCGCCAUAAGGGUGACAGUCUGGGUACAUGAGGAUCACCCAUGUAGGCAGGUAGGUCGCCUAGCUCUCA [XArg-B16]	9.4 nM	12.9 nM	9.56 nM	9.14 nM	12.9 nM
UGUUUGGUGCGCGAGUGUUGGAUAAAUGAUACCAGUGUAGAUGUACGCCCUUGGCAGCGUAUCCGAACAUGAGGAUCACCCAUGU [5.aB]	26.7 nM	44.9 nM	36.3 nM		
ACGAUAGCACACGAGGAUCACCCGUGUGAUACCAGCCUGGAAACAGGCCCUUGGCAGCACACAAUAAAAGUGUAACUAUCGAAUA [TheoAX4 #MicroSwitchBubble #AlternativeMS2]	40.2 nM	128 nM	56.1 nM	54.2 nM	161 nM
AAAUAGGUAGGAGAUACCAGAUACGUUAACAUGAGGAUCACCCAUGUGUAUGCACUUAGUGUCCCUUGGCAGCUCGAGGAUCUGG [#18 Same State - Theophylline B]	23.3 nM	37 nM	27.4 nM		
UGUAUGGACUGAAGGAGCGGAUGAUAUCAUGAGGAUCACCCAUGGAAUAAGGCGAAAGCCAUCCAGGUAGGUCGCAGUCCAUACU	45.6 nM	131 nM	82.4 nM	72.7 nM	128 nM
AUUGUCGCGUCGGCCGCCACUGUCAUGGUUUUCGUGGAACACAUGAGGAUCACCCAUGUAAUUGACAGGACCGGGACGUGGCGGC [Vevea]	10.2 nM	11.1 nM	12.2 nM	8.64 nM	10.6 nM
ACCUACACGGAGACGUGUAGGAGUAAUGAUACCAGCAUGGAGACAUGCCCUUGGCAGCGUUACAUGAGGAUCACCCAUGUAGUGC [ETHA #5]	10.4 nM	14.2 nM	12.9 nM	10.7 nM	12.8 nM
UAAUUUAUAGGGUAUAUCAGAUUAACUGAAGGAGCGUGGUAAUACACAGGUAGGUCGCAGAUGGAACAUGAGGAUCACCCAUGUU [JR_ExcArginiA_Sub016]	17.6 nM	27 nM	21.2 nM	20 nM	25.7 nM
GAAGAGACCUCGGCCGCCACUCGCCAUGAGGAUCUCCCAUGUAACAUGAGGAUCACCCAUGUACAGAGGACCGGGAGGUCCUAGU [Same State Tryptophan B GF 14]	12.8 nM	39.1 nM	50.1 nM	21.2 nM	24.8 nM
UGGUGUAGGGUAAAUAGGCUGAGUACAGAAGGAGCGCGAAUAAACGCAGGUAGGUCGCUGGACACAUGAGGAUCACCCAUGUUGA [Same State Arginine A GF 29]	10.8 nM	31.9 nM	21.2 nM	20.5 nM	27.3 nM
AACAUGAGGAUCACCCAUGUCGGGCCGGUGCGAGGACCGGUACGGCCGCCACUCGAGACAUGAGGAUCACCCAUGUUGUGCGUGA [Exclusion Tryptophan A GF23]	52.6 nM	195 nM	138 nM	162 nM	221 nM
AUCAUGGCCAUCGAUACCAGCUACAUGAGGAUCACCCAUGUAAACGGCCCGGUGAGAUGUAGCCCUUGGCAGCGAAGGGUCGAGG [Inenenatti]	14 nM	24.3 nM	14.6 nM	18.6 nM	72.3 nM
UGAUCCUGCAGGGAUACCAGCGCCGCUUGAUAACUGUGCACAUGAGGAUCACCCAUGUAGCGCCCUUGGCAGCCCAGCUAGAGGG [Same State Theophylline B GF23]	21.8 nM	33.7 nM	28.3 nM		
ACACAAUACAUGAGGAUCACCCAUGUAAAACGAGGACCGGUACGGCCGCCACUCGAAUACAGGAAACCUCGGAAUAUUAAGUGAA [JR_ExcTryptA_Sub001]	26.9 nM	64.1 nM			95.8 nM
